This assay addresses fibrillin-1 (human) (UniProt P35555). Briefly: cell-based or functional assay.
Sequence of UniProt P35555 (P35555 45-2731 limits assumed): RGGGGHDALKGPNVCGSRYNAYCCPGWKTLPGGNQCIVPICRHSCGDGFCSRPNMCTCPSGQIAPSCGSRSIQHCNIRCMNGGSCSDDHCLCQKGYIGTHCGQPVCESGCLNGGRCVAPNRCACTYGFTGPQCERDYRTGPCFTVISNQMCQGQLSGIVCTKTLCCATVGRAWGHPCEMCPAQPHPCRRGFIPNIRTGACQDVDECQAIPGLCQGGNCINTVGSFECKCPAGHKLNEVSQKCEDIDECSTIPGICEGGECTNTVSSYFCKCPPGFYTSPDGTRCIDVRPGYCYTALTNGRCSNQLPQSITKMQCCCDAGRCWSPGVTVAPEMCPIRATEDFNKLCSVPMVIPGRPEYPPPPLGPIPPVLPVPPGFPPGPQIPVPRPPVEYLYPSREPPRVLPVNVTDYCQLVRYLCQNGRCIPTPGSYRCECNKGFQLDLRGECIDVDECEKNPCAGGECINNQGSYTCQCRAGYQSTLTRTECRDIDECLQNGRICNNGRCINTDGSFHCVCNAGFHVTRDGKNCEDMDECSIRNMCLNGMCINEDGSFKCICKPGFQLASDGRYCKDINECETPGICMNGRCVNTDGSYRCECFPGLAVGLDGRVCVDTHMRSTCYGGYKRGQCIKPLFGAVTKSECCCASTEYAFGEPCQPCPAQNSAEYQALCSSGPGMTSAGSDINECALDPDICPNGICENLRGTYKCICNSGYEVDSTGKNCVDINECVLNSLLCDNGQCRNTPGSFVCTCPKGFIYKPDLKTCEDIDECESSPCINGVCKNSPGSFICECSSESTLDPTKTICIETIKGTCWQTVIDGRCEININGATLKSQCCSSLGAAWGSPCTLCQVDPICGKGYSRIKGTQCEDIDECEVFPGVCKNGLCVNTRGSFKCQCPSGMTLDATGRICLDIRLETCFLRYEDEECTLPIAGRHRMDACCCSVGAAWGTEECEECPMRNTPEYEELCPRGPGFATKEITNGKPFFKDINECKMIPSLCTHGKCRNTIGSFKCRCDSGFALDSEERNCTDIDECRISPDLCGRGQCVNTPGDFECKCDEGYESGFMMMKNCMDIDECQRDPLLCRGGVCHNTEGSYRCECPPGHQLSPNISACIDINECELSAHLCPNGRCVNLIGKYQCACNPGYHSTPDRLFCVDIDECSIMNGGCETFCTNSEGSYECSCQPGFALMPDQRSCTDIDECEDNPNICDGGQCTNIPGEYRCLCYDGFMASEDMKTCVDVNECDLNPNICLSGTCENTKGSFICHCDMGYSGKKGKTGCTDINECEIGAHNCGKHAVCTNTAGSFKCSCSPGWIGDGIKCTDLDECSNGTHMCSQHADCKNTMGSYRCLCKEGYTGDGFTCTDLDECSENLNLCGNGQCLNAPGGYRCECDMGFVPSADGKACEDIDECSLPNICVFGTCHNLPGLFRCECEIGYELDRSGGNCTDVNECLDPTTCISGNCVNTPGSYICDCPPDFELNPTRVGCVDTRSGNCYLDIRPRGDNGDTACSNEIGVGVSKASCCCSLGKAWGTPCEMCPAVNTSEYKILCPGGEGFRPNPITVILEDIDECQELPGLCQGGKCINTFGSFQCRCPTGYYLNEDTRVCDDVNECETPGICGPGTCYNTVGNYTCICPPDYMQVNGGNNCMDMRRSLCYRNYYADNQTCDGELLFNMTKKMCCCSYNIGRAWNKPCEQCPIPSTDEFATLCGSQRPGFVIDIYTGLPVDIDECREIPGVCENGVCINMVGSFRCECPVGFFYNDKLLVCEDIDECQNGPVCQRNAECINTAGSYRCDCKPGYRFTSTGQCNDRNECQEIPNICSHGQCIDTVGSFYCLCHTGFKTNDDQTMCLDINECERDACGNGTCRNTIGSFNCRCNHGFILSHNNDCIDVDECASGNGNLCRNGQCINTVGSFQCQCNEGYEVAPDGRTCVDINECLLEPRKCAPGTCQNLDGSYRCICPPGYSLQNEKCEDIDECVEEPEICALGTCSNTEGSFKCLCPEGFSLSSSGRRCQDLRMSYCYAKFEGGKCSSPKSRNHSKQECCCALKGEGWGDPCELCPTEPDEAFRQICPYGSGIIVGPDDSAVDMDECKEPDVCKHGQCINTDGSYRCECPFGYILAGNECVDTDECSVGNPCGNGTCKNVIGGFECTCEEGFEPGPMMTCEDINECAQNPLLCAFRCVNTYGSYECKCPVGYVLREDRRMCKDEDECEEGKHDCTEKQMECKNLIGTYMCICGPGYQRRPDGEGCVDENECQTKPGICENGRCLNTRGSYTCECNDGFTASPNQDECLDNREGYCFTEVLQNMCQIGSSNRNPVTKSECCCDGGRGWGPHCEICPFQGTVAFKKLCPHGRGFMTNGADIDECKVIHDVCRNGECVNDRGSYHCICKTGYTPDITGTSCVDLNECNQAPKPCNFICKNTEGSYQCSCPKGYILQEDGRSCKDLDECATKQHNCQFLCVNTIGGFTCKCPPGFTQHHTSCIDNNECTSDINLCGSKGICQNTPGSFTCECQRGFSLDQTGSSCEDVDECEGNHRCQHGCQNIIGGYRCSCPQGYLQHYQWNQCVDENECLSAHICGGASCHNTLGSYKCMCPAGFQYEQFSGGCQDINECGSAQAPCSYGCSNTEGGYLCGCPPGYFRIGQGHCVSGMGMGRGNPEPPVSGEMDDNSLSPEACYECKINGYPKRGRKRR

Sequence of elastin (P15502 27-786 limits assumed): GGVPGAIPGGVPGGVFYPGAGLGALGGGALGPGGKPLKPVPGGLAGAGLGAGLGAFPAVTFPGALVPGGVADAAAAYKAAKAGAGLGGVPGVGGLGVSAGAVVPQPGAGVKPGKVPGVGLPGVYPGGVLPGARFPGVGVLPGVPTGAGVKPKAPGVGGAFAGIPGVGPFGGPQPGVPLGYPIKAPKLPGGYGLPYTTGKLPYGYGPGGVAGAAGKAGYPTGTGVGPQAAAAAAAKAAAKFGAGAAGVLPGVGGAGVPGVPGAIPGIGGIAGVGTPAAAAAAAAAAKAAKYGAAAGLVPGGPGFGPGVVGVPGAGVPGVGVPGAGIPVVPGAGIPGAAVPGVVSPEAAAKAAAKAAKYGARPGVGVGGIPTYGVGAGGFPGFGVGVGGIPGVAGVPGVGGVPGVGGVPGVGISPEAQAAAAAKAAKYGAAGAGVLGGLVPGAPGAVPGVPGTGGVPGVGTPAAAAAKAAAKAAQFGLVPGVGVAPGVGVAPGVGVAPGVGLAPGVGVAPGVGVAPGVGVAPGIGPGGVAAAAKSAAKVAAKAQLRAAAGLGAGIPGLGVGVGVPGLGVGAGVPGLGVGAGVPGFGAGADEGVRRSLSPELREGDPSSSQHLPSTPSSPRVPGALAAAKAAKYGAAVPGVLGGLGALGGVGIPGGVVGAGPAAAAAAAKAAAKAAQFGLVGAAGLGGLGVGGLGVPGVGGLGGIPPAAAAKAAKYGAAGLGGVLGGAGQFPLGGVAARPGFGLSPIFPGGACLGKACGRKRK

elastin (from UniProt P15502 27-786) yielded an amount of elastin deposition to the extracellular matrix (% vs CS-free), keloid cells, CS-A added of 87%; an amount of elastin deposition to the extracellular matrix (% vs CS-free), keloid cells, CS-A and CS-B added of 66.3%; an amount of elastin deposition to the extracellular matrix (% vs CS-free), keloid cells, CS-A and CS-C added of 67.4%; an amount of elastin deposition to the extracellular matrix (% vs CS-free), keloid cells, CS-A, CS-B and CS-C added of 37.6%. In addition, the amount of elastin deposition to the extracellular matrix (% vs CS-free), keloid cells, CS-B added came out at 95.9%; the amount of elastin deposition to the extracellular matrix (% vs CS-free), keloid cells, CS-B and CS-C added was found to be 91%; the amount of elastin deposition to the extracellular matrix (% vs CS-free), keloid cells, CS-C added came out at 86.7%; the amount of elastin deposition to the extracellular matrix (% vs CS-free), keloid cells, CS-free is 100%.

These data come from patent US20110008312A1.
